Here are results for 10 molecules from patent US20220363763A1 (ABL BIO, published 2022).

First the molecules themselves.
T1: human LAG3 (construct not stated) (human, UniProt P18627 23-450, limits assumed)
T1 construct: also called human LAG3 protein; antigen
T1 sequence (looked up): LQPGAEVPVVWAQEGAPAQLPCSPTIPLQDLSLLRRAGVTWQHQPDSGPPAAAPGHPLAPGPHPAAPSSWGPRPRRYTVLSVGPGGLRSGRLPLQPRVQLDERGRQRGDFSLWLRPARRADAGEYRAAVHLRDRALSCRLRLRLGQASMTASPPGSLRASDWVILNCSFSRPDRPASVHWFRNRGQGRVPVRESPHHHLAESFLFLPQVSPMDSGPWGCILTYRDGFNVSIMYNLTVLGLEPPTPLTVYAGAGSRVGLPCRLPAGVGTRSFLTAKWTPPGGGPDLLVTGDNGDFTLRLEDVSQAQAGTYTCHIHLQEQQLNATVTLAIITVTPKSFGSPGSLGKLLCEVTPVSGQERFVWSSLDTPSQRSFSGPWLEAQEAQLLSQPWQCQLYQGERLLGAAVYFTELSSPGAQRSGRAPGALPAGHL

B1: Hu1210-22 (antibody, V domains shown)
VH: EVQLVESGGGLVQPGGSLRLSCAASGFTFSSYDMSWVRQAPGKSLEWVATISDGGGYIYYSDSVKGRFTISRDNAKNSLYLQMNSLRDEDTAVYICAREFGKRYALDYWGQGTTVTVSS
VL: DIQMTQSPSSLSASVGDRVTITCKASQDVTPAVAWYQQKPGKSPKLLIYSTSSRYTGVPSRFSGSGSGTDFTFTISSLQPEDIATYYCQQHYTTPLTFGQGTKLEIK
notes: Hu1210 VH.4b x Vk.1a; human gamma 1 / kappa constant domains
B2: H1210 chimera (antibody, V domains shown)
VH: EVKLVESGGDLVKPGGSLKLSCAASGFTFSSYDMSWVRQTPEKSLEWVATISDGGGYIYYSDSVKGRFTISRDNAKNNLYLQMSSLRSEDTALYICAREFGKRYALDYWGQGTSVTVSS
VL: DIVMTQSHKFMSTSVGDRVSISCKASQDVTPAVAWYQQKPGQSPKLLIYSTSSRYTGVPDRFTGSGSGTDFTFTISSVQAEDLAVYYCQQHYTTPLTFGAGTKLELK
notes: also called chimeric antibody
B3: Hu1210-16 (antibody, V domains shown)
VH: B1 VH with S44G, I95Y
VL: B1 VL with S43A
notes: Hu1210 VH.4a x Vk.1; human gamma 1 / kappa constant domains
B4: Hu1210-15 (antibody, V domains shown)
VH: B1 VH with S44G, A49S, I95Y
VL: B1 VL with S43A
notes: Hu1210 VH.4 x Vk.1; human gamma 1 / kappa constant domains
B5: Hu1210-14 (antibody, V domains shown)
VH: B1 VH with V5L, A75S, S78T, D88A
VL: B1 VL with S43A
notes: Hu1210 VH.3a x Vk.1; human gamma 1 / kappa constant domains
B6: Hu1210-8 (antibody, V domains shown)
VH: B1 VH with Q13K, S44G, D88A, I95Y
VL: B1 VL
notes: Hu1210 VH.1a x Vk.1a; human gamma 1 / kappa constant domains
B7: H12x147(H3807) (bispecific antibody, human IgG1, kappa, N297A)
heavy chain of H12 (IgG) - linker - scFv of 147(H3807) (VL - linker - VH): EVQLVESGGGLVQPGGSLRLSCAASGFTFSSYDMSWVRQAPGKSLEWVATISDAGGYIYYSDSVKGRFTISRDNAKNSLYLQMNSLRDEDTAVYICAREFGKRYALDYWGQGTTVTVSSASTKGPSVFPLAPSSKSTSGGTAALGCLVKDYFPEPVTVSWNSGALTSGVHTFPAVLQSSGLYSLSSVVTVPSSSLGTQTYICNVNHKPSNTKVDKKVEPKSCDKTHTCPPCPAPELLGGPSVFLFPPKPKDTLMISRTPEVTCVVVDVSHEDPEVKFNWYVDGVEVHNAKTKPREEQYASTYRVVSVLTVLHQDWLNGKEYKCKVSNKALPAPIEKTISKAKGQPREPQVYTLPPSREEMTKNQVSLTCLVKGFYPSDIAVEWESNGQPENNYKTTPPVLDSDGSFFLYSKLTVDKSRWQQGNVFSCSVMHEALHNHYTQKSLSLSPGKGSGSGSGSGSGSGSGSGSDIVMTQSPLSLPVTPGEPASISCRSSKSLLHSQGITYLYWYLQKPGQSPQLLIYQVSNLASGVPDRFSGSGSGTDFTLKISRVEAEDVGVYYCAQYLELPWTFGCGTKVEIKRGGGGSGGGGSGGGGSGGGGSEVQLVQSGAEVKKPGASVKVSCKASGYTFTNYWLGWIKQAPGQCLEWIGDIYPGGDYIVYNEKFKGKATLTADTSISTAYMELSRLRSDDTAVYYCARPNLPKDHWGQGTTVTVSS
light chain of H12: DIQMTQSPSSLSASVGDRVTITCKASQDVTPAVAWYQQKPGKAPKLLIYSTSSRYTGVPSRFSGSGSGTDFTFTISSLQPEDIATYYCQQHYTTPLTFGQGTKLEIKRTVAAPSVFIFPPSDEQLKSGTASVVCLLNNFYPREAKVQWKVDNALQSGNSQESVTEQDSKDSTYSLSSTLTLSKADYEKHKVYACEVTHQGLSSPVTKSFNRGEC
B8: B6x147(H3807) (bispecific antibody, human IgG1, kappa, N297A)
heavy: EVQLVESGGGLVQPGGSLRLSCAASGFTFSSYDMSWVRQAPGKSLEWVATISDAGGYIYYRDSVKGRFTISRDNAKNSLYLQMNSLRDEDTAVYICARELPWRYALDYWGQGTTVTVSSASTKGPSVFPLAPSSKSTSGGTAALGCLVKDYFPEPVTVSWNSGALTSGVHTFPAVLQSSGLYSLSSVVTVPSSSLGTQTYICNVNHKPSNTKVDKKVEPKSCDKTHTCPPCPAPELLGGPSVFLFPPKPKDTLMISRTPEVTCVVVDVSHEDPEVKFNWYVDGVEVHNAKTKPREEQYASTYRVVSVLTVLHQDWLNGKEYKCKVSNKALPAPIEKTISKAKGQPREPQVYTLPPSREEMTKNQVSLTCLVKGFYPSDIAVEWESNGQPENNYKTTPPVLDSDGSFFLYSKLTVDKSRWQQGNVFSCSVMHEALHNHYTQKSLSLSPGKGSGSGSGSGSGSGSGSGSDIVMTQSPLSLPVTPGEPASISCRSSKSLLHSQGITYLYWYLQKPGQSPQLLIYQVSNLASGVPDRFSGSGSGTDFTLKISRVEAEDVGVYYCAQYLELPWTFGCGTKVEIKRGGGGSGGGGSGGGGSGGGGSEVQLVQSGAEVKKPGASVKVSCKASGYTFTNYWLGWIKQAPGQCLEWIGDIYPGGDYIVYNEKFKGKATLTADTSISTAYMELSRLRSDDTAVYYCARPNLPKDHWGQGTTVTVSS
light: B7 light chain of H12
B9: 147xH12 (bispecific antibody, human IgG4 S228P, kappa)
heavy: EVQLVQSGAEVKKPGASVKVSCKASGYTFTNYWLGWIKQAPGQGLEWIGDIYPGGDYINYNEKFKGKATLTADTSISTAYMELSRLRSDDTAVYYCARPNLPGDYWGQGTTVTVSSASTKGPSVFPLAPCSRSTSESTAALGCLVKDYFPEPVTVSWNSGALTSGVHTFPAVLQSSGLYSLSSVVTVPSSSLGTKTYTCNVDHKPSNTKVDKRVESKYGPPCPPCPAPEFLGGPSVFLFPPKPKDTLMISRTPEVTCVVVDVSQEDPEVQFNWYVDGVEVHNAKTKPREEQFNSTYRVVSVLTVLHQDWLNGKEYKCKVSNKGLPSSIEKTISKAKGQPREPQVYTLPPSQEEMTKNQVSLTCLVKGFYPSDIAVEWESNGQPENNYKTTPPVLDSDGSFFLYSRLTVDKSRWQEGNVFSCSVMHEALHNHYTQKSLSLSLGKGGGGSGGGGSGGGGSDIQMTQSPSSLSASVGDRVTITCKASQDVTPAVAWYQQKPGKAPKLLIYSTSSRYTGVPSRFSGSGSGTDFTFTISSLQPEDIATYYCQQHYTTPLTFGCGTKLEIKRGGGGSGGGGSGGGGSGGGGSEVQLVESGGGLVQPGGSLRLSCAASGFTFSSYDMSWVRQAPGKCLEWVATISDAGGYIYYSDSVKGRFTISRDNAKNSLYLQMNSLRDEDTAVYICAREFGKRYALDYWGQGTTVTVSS
light: DIVMTQSPLSLPVTPGEPASISCRSSKSLLHSNGITYLYWYLQKPGQSPQLLIYQVSNLASGVPDRFSGSGSGTDFTLKISRVEAEDVGVYYCAQNLELPWTFGGGTKVEIKRTVAAPSVFIFPPSDEQLKSGTASVVCLLNNFYPREAKVQWKVDNALQSGNSQESVTEQDSKDSTYSLSSTLTLSKADYEKHKVYACEVTHQGLSSPVTKSFNRGEC
notes: also called A3L1
B10: 147(H3807)xB6 (bispecific antibody, human IgG4 S228P, kappa)
heavy: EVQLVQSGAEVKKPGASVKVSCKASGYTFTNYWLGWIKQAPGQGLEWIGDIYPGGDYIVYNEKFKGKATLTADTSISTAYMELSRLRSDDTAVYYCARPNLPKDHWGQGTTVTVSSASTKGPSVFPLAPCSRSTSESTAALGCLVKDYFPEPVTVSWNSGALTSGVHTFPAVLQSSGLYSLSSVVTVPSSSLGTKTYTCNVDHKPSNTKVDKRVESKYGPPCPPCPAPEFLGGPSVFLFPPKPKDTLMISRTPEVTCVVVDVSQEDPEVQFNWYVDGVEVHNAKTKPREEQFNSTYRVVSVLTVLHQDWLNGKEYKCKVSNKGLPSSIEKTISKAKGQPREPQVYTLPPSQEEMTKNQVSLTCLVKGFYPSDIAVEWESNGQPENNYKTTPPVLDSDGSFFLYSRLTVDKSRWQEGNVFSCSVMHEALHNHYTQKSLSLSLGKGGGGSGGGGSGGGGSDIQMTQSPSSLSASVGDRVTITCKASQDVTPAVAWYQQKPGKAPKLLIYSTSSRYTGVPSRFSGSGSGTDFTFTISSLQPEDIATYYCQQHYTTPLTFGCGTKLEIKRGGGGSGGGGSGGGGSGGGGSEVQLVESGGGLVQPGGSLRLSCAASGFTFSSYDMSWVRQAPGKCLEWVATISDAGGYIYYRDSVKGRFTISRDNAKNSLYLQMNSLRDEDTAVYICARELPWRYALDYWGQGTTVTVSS
light: B9 light with N33Q, N96Y

By EC50 is commonly meant the concentration giving half of the maximal effect. By EC50 (read off the curve) is commonly meant the concentration giving half of the maximal effect. Lower therefore signals higher potency in that assay. In general, Kd refers to the equilibrium constant for the complex coming apart. In general, koff refers to a measure of how fast the partners let go of each other. In general, kon refers to the second-order rate constant of association.

Substitutions are numbered along the chain they refer to.

T2 sequence (Q9NZQ7 19-239 limits assumed): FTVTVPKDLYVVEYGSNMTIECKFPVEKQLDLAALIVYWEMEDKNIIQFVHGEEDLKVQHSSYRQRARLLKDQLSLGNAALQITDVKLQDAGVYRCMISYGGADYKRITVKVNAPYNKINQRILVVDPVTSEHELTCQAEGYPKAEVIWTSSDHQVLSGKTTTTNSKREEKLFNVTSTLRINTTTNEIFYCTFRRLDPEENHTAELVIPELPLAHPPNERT
T4 sequence (Q9NZQ7 19-239 limits assumed): as above

The first assay addresses T2, human PD-L1-Fc protein (human, UniProt Q9NZQ7 19-239).
T2 construct: Coated on ELISA plates; also called huPD-L1; not shown: Fc part
The assay can be described thus: ELISA on coated human PD-L1-Fc; EC50 table has no unit, x axis Ab(nM). The procedure:
(§1) To evaluate the antigen binding activity, the humanized antibodies were subjected to ELISA test. Briefly, microtiter plates were coated with human PD-L1-Fc protein at 0.1 μg/ml in PBS, 100 μl/well at 4° C. overnight, then blocked with 100 μl/well of 5% BSA. Five-fold dilutions of humanized antibodies starting from 10 μg/ml were added to each well and incubated for 1-2 hours at RT. The plates were washed with PBS/Tween and then incubate with […] antibody conjugated with Horse Radish Peroxidase (HRP) for 1 hour at RT. After washing, the plates were developed with TMB substrate and analyzed by spectrophotometer at OD 450-630 nm.
In general terms: An ELISA detects its analyte on a solid surface through an enzyme-linked reagent.
Consider B1, for which the EC50 was 0.148 nM.

B2 yielded a concentration giving a half-maximal response (EC50) of 0.169 nM.

Another assay addresses T2, human PD-L1-Fc protein. Described as above. The source holds these as a separate data set. Here is the method: as §1
On to B3, for which the 50% effective concentration (EC50) amounted to 0.179 nM.

Turning to B4, it took 0.187 nM to reach a half-maximal effect (EC50).

B5 returned an EC50 of 0.163 nM.

In turn, B2 showed an EC50 of 0.139 nM.

In the next assay the target is T3, human PD-L1 expressed on mammalian cells (human, UniProt Q9NZQ7 19-290).
T3 construct: whole, on cells; also called PDL1-CHOK1 cells; PDL1-Raji cells
T3 sequence (Q9NZQ7 19-290): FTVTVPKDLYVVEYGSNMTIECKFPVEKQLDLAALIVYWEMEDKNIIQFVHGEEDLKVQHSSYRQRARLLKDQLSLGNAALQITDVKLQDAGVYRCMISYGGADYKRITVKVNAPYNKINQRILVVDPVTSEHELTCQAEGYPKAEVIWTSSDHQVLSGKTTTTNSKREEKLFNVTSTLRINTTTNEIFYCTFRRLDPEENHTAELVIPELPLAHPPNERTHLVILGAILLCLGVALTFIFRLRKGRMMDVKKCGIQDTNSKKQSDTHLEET
The assay can be described thus: flow cytometry (MFI) on PDL1-CHOK1 cells; EC50 table has no unit, x axis Antibodies(nM). The procedure: (§2) To evaluate the antigen binding property, the humanized antibodies were analyzed for its binding to mammalian expressed PD-L1 by FACS. Briefly, PDL1-CHOK1 cells were firstly incubated with 5-fold serious diluted humanized antibodies starting at 2 μg/ml at RT for 1 hour. After wash by FACS buffer (PBS with 2% FBS), the alexa 488-anti-human IgG antibody was added to each well and incubated at RT for 1 hour. The MFI of Alexa 488 was evaluated by FACSAriaIII.
In general terms: Flow cytometry measures light scatter and fluorescence of single cells or particles in a stream.
B6 displayed a half-maximal effective concentration (EC50) of 1.23 nM.

With B2, the EC50 was determined as 0.95 nM.

The target in the next assay is T2, human PD-L1-Fc protein. Briefly: ELISA on coated human PD-L1-Fc, panel PD-L1. From the text: To evaluate the binding activity to PD-L1 and LAG3 of the bispecific antibodies (BsAb; H12x147 and 147xH12) prepared in Example 3, the BsAb were subjected to ELISA test.
Take B7: the concentration giving a half-maximal response (EC50 (read off the curve)) was about 1 nM.

On to B8, for which the “EC50 (read off the curve)” value is about 0.3 nM.

Another assay concerns the target T3, human PD-L1 expressed on mammalian cells. Briefly: flow cytometry (MFI) on PDL1-CHOK1 cells; EC50 table has no unit, x axis Antibodies(nM). This is another data set of the same source. The procedure:
as §2
B1 returned a concentration giving a half-maximal response (EC50) of 1.17 nM.

Molecule B2 yielded a 50% effective concentration (EC50) of 0.95 nM.

The next assay concerns the target T4, human PD-L1 (construct not stated) (human, UniProt Q9NZQ7 19-239, limits assumed).
T4 construct: also called B7-H1 (PD-L1); PD-L1 protein
Briefly: SPR Biacore, capture method. The procedure:
(§3) The binding affinities of bispecific antibodies PD-L1 and LAG3 of the bispecific antibodies (BsAb; 147xH12, 147H3807xB6 and B6x147H3807) prepared in Example 3 to PD-L1 protein and human LAG3 protein were tested with BIACORE™ using a capture method.
(SPR reads the build-up and loss of mass on a sensor chip optically.)
For B9, the Kd worked out at 27.4 nM.

In turn, B10 came in with a dissociation constant (Kd) of 5.94 nM.

B8 registered a dissociation constant (Kd) of 1.18 nM.

Another assay has as its target T1, human LAG3 (construct not stated). The assay can be described thus: SPR Biacore, capture method. Here is the method: as §3
In turn, B9 came in with a Kd of 13.5 nM.

In turn, B10 displayed a dissociation constant Kd of 1.63 nM.

B8 yielded a dissociation constant Kd of 8.87 nM.

A further assay has as its target T2, human PD-L1-Fc protein. The assay can be described thus: ELISA on coated human PD-L1-Fc; EC50 table has no unit, x axis Ab(nM). The source holds these as a separate data set. Here is the method:
as §1
For the molecule B2, the EC50 came to 0.17 nM.

For a further assay, the target named is T5, human PD-L1-his taq protein (human, UniProt Q9NZQ7 19-239, limits assumed).
T5 construct: also called recombinant PD-L1 protein; recombinant human PD-L1; not shown: his tag
T5 sequence (Q9NZQ7 19-239 limits assumed): as the sequence (Q9NZQ7 19-239 limits assumed) above
Briefly: SPR Biacore T200, antibody captured, PD-L1-his injected. In outline:
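HL1210-3 mouse mAb was captured via anti-mouse Fc antibody on a CM5 chip, then serially diluted PD-L1-his was injected for 3 min […]. Dissociation was followed for 900 s.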
Molecule B6 registered a dissociation constant Kd of 0.767 nM, a koff of 7.17e-05 s⁻¹ and an association rate constant (kon) of 93500 M⁻¹ s⁻¹.

Molecule B3 registered a dissociation constant (Kd) of 0.672 nM, a koff of 6.7e-05 s⁻¹ and an association rate constant (kon) of 99800 M⁻¹ s⁻¹.

As for B5, the affinity, expressed as Kd, was 0.435 nM; the off-rate constant (koff) is 5.29e-05 s⁻¹; the on-rate (kon) was found to be 122000 M⁻¹ s⁻¹.

As to B2, the dissociation constant Kd came out at 0.264 nM, the koff is 3.27e-05 s⁻¹ and the kon was found to be 124000 M⁻¹ s⁻¹.

The target of a further assay is T3, human PD-L1 expressed on mammalian cells. The assay can be described thus: flow cytometry (MFI) on PDL1-CHOK1 cells; EC50 table has no unit, x axis Antibodies(nM). This is another data set of the same source. The procedure:
as §2
With B3, the half-maximal effective concentration (EC50) came out at 1.41 nM.

For B4, the EC50 is 2.04 nM.

For the molecule B5, the EC50 was 1.46 nM.

In the case of B2, the 50% effective concentration (EC50) was 0.95 nM.

In a further assay the target is T2, human PD-L1-Fc protein. The assay can be described thus: ELISA on coated human PD-L1-Fc; EC50 table has no unit, x axis Ab(nM). This is another data set of the same source. The procedure:
as §1
B2: the concentration giving a half-maximal response (EC50) came to 0.16 nM.

A further assay deals with T4, human PD-L1 (construct not stated). Briefly: BLI Octet Red 96, affinity ranking. The source says:
To explore the binding kinetics of the humanized antibody, this example performed the affinity ranking by using Octet Red 96.
Consider B6, for which the Kd was determined as 1.64 nM, the dissociation rate constant (koff) came to 0.000127 s⁻¹ and the on-rate constant (kon) was 77200 M⁻¹ s⁻¹.

Molecule B3 yielded a Kd of 3.14 nM, a koff of 0.000264 s⁻¹ and a kon of 84100 M⁻¹ s⁻¹.

B1 registered a dissociation constant Kd of 2.56 nM, a koff of 0.00023 s⁻¹ and a kon of 90000 M⁻¹ s⁻¹.

B4 returned a Kd of 4.45 nM, a dissociation rate constant (koff) of 0.00035 s⁻¹ and an on-rate constant (kon) of 78700 M⁻¹ s⁻¹.

With B5, the Kd was 2.34 nM, the koff worked out at 0.000197 s⁻¹ and the kon came out at 84100 M⁻¹ s⁻¹.

Molecule B2 showed a Kd of 1.07 nM, a koff of 0.000173 s⁻¹ and an association rate constant (kon) of 162000 M⁻¹ s⁻¹.

In another assay the target is T2, human PD-L1-Fc protein. The assay can be described thus: ELISA on coated human PD-L1-Fc; EC50 table has no unit, x axis Ab(nM). The source holds these as a separate data set. The procedure: as §1
B6 gave a half-maximal effective concentration (EC50) of 0.186 nM.

The molecule B2 had an EC50 of 0.177 nM.

The target of a further assay is T3, human PD-L1 expressed on mammalian cells. Briefly: FACS receptor blocking on PDL1-CHOK1 cells, competitor Bio-PD1 (30 µg/ml). Here is the method: To evaluate the blocking effect of humanized antibodies on human PD-L1 expressed on mammalian cells to bind to its receptor PD-1, the FACS-based receptor blocking assay was employed. Briefly, PDL1-CHOK1 cells were firstly incubated with 3-fold serious diluted HL1210-3 mouse mAb starting at 20 μg/ml at RT for 1 hour. After wash by FACS buffer (PBS with 2% FBS), the biotin-labeled huPD-1 were added to each well and incubated at RT for 1 hour. Then, the Streptavidin-PE was added to each well for 0.5 hour post twice wash with FACS buffer. The mean florescence intensity (MFI) of PE was evaluated by FACSAriaIII.
Turning to B6, the TOP was 86.3.

B3 yielded a TOP of 88.

B1 registered a TOP of 85.8.

B5: the TOP turned out to be 79.6.

B2 gave a TOP of 87.2.
